# Paper PMC12102759
# B1: TPTE2 peptide 94-109 (Phosphatidylinositol 3,4,5-trisphosphate 3-phosphatase TPTE2), 16-mer library wild type / TLN1 PTB (TLN1 Phosphotyrosine-binding (PTB) domain, residues 309-401) (parent)
# chain 1: DLIFTDSKLYIPLEYR
# chain 2: GVSFFLVKEKMKGKNKLVPRLLGITKECVMRVDEKTKEVIQEWNLTNIKRWAASPKSFTLDFGDYQDGYYSVQTTEGEQIAQLIAGYIDIILK
# B2: SH3BP2 peptide 410-425 (SH3 domain-binding protein 2), 16-mer library wild type / TNKS ANK (TNKS 12 ANK repeats, residues 174-649) (parent)
# chain 1: LPHLQRSPPDGQSFRS
# chain 2: TGVPAVSGALRELLEACRNGDVSRVKRLVDAANVNAKDMAGRKSSPLHFAAGFGRKDVVEHLLQMGANVHARDDGGLIPLHNACSFGHAEVVSLLLCQGADPNARDNWNYTPLHEAAIKGKIDVCIVLLQHGADPNIRNTDGKSALDLADPSAKAVLTGEYKKDELLEAARSGNEEKLMALLTPLNVNCHASDGRKSTPLHLAAGYNRVRIVQLLLQHGADVHAKDKGGLVPLHNACSYGHYEVTELLLKHGACVNAMDLWQFTPLHEAASKNRVEVCSLLLSHGADPTLVNCHGKSAVDMAPTPELRERLTYEFKGHSLLQAAREADLAKVKKTLALEIINFKQPQSHETALHCAVASLHPKRKQVTELLLRKGANVNEKNKDFMTPLHVAAERAHNDVMEVLHKHGAKMNALDTLGQTALHRAALAGHLQTCRLLLSYGSDPSIISLQGFTAAQMGNEAVQQILSESTPIRTSD
# Variants of: B1
# Experiment: proteomic peptide phage display deep mutational scan (ProP-PD DMS): M13 P8 16-mer library selected against immobilised GST-tagged bait for four days (rounds), NGS of the eluted pools per day and pseudo-replica
# Settings: with TLN1 PTB (TLN1 Phosphotyrosine-binding (PTB) domain, residues 309-401); bait immobilised on MaxiSorp plates (10 µg), library pre-cleared on GST, 2 h binding at 4 °C, five washes; one round per day, days 1-4; value from days 2 and 3; keep out of graded; scale: average fractional NGS count over selection days 2 and 3
row,Variant,screen value
1,chain 1 DLIFTDDKLYIPLEYR [chain 1 S7D],0
2,chain 1 DLIFTDNKLYIPLEYR [chain 1 S7N],0.000778
3,chain 1 DLIFTDSKTYIPLEYR [chain 1 L9T],2.4e-05
4,chain 1 DLIFTDSKVYIPLEYR [chain 1 L9V],0.000711
5,chain 1 DLIFTDSKLYIELEYR [chain 1 P12E],0
6,chain 1 DLIFTDSKLYIWLEYR [chain 1 P12W],0
7,chain 1 DLIFTDSKLYIPPEYR [chain 1 L13P],0.000483
8,chain 1 DLIFTDSKLYIPAEYR [chain 1 L13A],0.0028
9,chain 1 DLIFTDSKLYIPSEYR [chain 1 L13S],0.0004
10,chain 1 DLIFTDSKLYIPTEYR [chain 1 L13T],0.000339
11,chain 1 DLIFTDSKLYIPYEYR [chain 1 L13Y],0
12,chain 1 DLIFTDSKLYIPDEYR [chain 1 L13D],3.05e-05
13,chain 1 DLIFTDSKLYIPKEYR [chain 1 L13K],0.00129
14,chain 1 DLIFTDSKLYIPHEYR [chain 1 L13H],2.74e-05
15,chain 1 DLIFTDSKLYIPLERR [chain 1 Y15R],4.1e-05
16,chain 1 DLIFTDSKLYIPLEAR [chain 1 Y15A],0.00819
17,chain 1 DLIFTDSKLYIPLEQR [chain 1 Y15Q],0.00142

row,Variant,screen value
1,chain 1 DLIFTDSKLYIPLETR [chain 1 Y15T],0.0011
2,chain 1 DLIFTDSKLYIPLEWR [chain 1 Y15W],0.00208
3,chain 1 DLIFTDSKLYIPLEHR [chain 1 Y15H],0.000355
4,chain 1 DLIFTDSKLYIPLEVR [chain 1 Y15V],0.000703
5,chain 1 DLIFTDSKLYIPLEFR [chain 1 Y15F],0.000157
6,chain 1 DLIFTDSKLYIPLEMR [chain 1 Y15M],0.00159
7,chain 1 DLIFLDSKLYIPLEYR [chain 1 T5L],0
8,chain 1 DLIFKDSKLYIPLEYR [chain 1 T5K],0
9,chain 1 DLIFFDSKLYIPLEYR [chain 1 T5F],0.000105
10,chain 1 DLIFHDSKLYIPLEYR [chain 1 T5H],5.61e-05
11,chain 1 DLIFIDSKLYIPLEYR [chain 1 T5I],0.000118
12,chain 1 DLIFNDSKLYIPLEYR [chain 1 T5N],0.000128
13,chain 1 DLIFQDSKLYIPLEYR [chain 1 T5Q],0.00106
14,chain 1 DLIFDDSKLYIPLEYR [chain 1 T5D],0
15,chain 1 DLIFRDSKLYIPLEYR [chain 1 T5R],0
16,chain 1 DLIFTDSKLWIPLEYR [chain 1 Y10W],0.00022
17,chain 1 DLIFTDSKLFIPLEYR [chain 1 Y10F],6.96e-05

# The next lines start with the values.
row,screen value,Variant
1,0,chain 1 DLIFTDAKLYIPLEYR [chain 1 S7A]
2,6.44e-05,chain 1 DLIFTDTKLYIPLEYR [chain 1 S7T]
3,0,chain 1 DLIFTDSKLYIALEYR [chain 1 P12A]
4,6.62e-05,chain 1 DLIFTDSKLYIPNEYR [chain 1 L13N]
5,0.00223,chain 1 DLIFTDSKLYIPIEYR [chain 1 L13I]
6,5.82e-05,chain 1 DLIFTDSKLYIPEEYR [chain 1 L13E]
7,0.000105,chain 1 DLIFTDSKLYIPGEYR [chain 1 L13G]
8,0.000367,chain 1 DLIFTDSKLYIPREYR [chain 1 L13R]
9,0.00103,chain 1 DLIFTDSKLYIPMEYR [chain 1 L13M]
10,4.1e-05,chain 1 DLIFTDSKLYIPVEYR [chain 1 L13V]
11,0.000253,chain 1 DLIFTDSKLYIPQEYR [chain 1 L13Q]
12,0.00052,chain 1 DLIFTDSKLYIPLELR [chain 1 Y15L]
13,0.00244,chain 1 DLIFTDSKLYIPLEER [chain 1 Y15E]
14,0.000939,chain 1 DLIFTDSKLYIPLEGR [chain 1 Y15G]
15,0.00294,chain 1 DLIFTDSKLYIPLEDR [chain 1 Y15D]
16,0.000999,chain 1 DLIFTDSKLYIPLENR [chain 1 Y15N]
17,0.00117,chain 1 DLIFTDSKLYIPLEPR [chain 1 Y15P]
18,0.00364,chain 1 DLIFTDSKLYIPLEIR [chain 1 Y15I]
19,0.000539,chain 1 DLIFTDSKLYIPLEKR [chain 1 Y15K]
20,0.00054,chain 1 DLIFTDSKLYIPLESR [chain 1 Y15S]
21,4.49e-05,chain 1 DLIFWDSKLYIPLEYR [chain 1 T5W]
22,4.81e-05,chain 1 DLIFSDSKLYIPLEYR [chain 1 T5S]
23,0.00155,chain 1 DLIFVDSKLYIPLEYR [chain 1 T5V]
24,0.000584,chain 1 DLIFEDSKLYIPLEYR [chain 1 T5E]
25,8.75e-05,chain 1 DLIFYDSKLYIPLEYR [chain 1 T5Y]
26,0,chain 1 DLIFTDSKLRIPLEYR [chain 1 Y10R]

# Variants of: B2
# Experiment: as above
# Settings: with TNKS ANK (TNKS 12 ANK repeats, residues 174-649); bait immobilised on MaxiSorp plates (10 µg), library pre-cleared on GST, 2 h binding at 4 °C, five washes; one round per day, days 1-4; value from days 2 and 3; keep out of graded; scale: average fractional NGS count over selection days 2 and 3
row,Variant,screen value
1,chain 1 LPHLQKSPPDGQSFRS [chain 1 R6K],0
2,chain 1 LPHLQVSPPDGQSFRS [chain 1 R6V],4.06e-05
3,chain 1 LPHLQESPPDGQSFRS [chain 1 R6E],0
4,chain 1 LPHLQTSPPDGQSFRS [chain 1 R6T],0
5,chain 1 LPHLRRSPPDGQSFRS [chain 1 Q5R],6.18e-05
6,chain 1 LPHLIRSPPDGQSFRS [chain 1 Q5I],7.42e-05
7,chain 1 LPHLQRSPPWGQSFRS [chain 1 D10W],7.2e-05
8,chain 1 LPHLQRSPPMGQSFRS [chain 1 D10M],3.11e-05
9,chain 1 LPHLQRSPPHGQSFRS [chain 1 D10H],0
10,chain 1 LPHLQRSPPNGQSFRS [chain 1 D10N],0
11,chain 1 LPDLQRSPPDGQSFRS [chain 1 H3D],4.19e-05
12,chain 1 LPHLQRSPPDGQSRRS [chain 1 F14R],2.25e-05
13,chain 1 LPHLQRSWPDGQSFRS [chain 1 P8W],7.62e-05
14,chain 1 LPHLQRSPVDGQSFRS [chain 1 P9V],0
15,chain 1 LPHLQRSPLDGQSFRS [chain 1 P9L],0
16,chain 1 LPHLQRSPIDGQSFRS [chain 1 P9I],4.06e-05

row,Variant,screen value
1,chain 1 LPHLQRSPMDGQSFRS [chain 1 P9M],0.000123
2,chain 1 LPHLQRRPPDGQSFRS [chain 1 S7R],8.27e-05
3,chain 1 LPHLQRWPPDGQSFRS [chain 1 S7W],1.87e-05
4,chain 1 LPHLQRGPPDGQSFRS [chain 1 S7G],0
5,chain 1 LYHLQRSPPDGQSFRS [chain 1 P2Y],4.27e-05
6,chain 1 LPHLQRSPPDGQSFYS [chain 1 R15Y],0.000124
7,chain 1 LPHRQRSPPDGQSFRS [chain 1 L4R],2.25e-05
8,chain 1 LPHKQRSPPDGQSFRS [chain 1 L4K],3.15e-05
9,chain 1 LPHLQRSPPDGRSFRS [chain 1 Q12R],6.14e-05
10,chain 1 LPHLQRSPPDGDSFRS [chain 1 Q12D],6.89e-05
11,chain 1 LPHLQRSPPDDQSFRS [chain 1 G11D],0.000101
12,chain 1 LPHLQRSPPDLQSFRS [chain 1 G11L],0
13,chain 1 LPHLQRSPPDAQSFRS [chain 1 G11A],0
14,chain 1 LPHLQRSPPDGQKFRS [chain 1 S13K],0
15,chain 1 LPHLQRSPPDGQRFRS [chain 1 S13R],3.04e-05

# Second part, the variant after the results:
row,screen value,Variant
1,0,chain 1 LPHLQQSPPDGQSFRS [chain 1 R6Q]
2,0,chain 1 LPHLQASPPDGQSFRS [chain 1 R6A]
3,4.95e-05,chain 1 LPHLQRSPPRGQSFRS [chain 1 D10R]
4,7.49e-05,chain 1 LPHLQRSPPSGQSFRS [chain 1 D10S]
5,0,chain 1 LPHLQRSPPFGQSFRS [chain 1 D10F]
6,5.51e-05,chain 1 LPKLQRSPPDGQSFRS [chain 1 H3K]
7,9.56e-05,chain 1 LPSLQRSPPDGQSFRS [chain 1 H3S]
8,3.96e-05,chain 1 LPRLQRSPPDGQSFRS [chain 1 H3R]
9,8.51e-05,chain 1 LPHLQRSGPDGQSFRS [chain 1 P8G]
10,0.000116,chain 1 LPHLQRSFPDGQSFRS [chain 1 P8F]
11,8.68e-05,chain 1 LPHLQRAPPDGQSFRS [chain 1 S7A]
12,0,chain 1 LWHLQRSPPDGQSFRS [chain 1 P2W]
13,3.03e-05,chain 1 LKHLQRSPPDGQSFRS [chain 1 P2K]
14,2.25e-05,chain 1 LPHLQRSPPDRQSFRS [chain 1 G11R]
15,0,chain 1 LPHLQRSPPDEQSFRS [chain 1 G11E]
16,0.000125,chain 1 LPHLQRSPPDGQWFRS [chain 1 S13W]
